This assay deals with human IGF-1R (human) (UniProt P08069). The assay can be described thus: cell-based or functional assay.
Sequence of human IGF-1R (human) (P08069 31-1367): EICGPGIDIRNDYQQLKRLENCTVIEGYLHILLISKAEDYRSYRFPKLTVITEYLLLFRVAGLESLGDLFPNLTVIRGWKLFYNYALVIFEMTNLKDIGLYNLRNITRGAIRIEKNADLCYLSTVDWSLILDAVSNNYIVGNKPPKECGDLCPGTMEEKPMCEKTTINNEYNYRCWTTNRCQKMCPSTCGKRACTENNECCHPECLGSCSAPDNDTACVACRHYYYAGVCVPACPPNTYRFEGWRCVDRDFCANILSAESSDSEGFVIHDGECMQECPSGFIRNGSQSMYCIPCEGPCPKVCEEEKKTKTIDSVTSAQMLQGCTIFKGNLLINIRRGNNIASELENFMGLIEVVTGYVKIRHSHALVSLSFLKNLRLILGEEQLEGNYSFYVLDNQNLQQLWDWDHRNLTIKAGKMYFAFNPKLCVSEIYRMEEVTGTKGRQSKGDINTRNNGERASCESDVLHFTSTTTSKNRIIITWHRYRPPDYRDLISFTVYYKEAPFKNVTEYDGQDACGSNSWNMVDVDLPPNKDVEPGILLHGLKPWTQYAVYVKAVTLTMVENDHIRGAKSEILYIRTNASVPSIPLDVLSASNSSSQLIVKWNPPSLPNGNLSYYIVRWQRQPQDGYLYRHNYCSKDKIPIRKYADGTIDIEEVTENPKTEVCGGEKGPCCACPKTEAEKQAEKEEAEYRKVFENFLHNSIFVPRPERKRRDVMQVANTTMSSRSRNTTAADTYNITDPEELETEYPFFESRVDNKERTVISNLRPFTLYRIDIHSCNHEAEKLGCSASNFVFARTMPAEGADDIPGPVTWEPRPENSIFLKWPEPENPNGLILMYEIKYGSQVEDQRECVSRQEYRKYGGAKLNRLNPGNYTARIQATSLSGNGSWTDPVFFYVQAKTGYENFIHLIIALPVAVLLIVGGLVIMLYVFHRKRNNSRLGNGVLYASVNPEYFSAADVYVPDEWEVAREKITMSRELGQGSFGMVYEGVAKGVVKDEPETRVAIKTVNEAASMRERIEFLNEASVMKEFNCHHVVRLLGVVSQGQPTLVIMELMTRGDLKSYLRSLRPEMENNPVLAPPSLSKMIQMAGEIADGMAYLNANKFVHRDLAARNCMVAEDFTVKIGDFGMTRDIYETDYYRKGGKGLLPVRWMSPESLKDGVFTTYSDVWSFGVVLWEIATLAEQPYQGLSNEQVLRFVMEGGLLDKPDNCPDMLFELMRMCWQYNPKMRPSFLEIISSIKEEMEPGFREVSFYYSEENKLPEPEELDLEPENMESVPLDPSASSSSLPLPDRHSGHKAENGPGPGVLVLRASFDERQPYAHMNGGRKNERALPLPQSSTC

For “IGF-1R antibody αIR3 (Calbiochem, No. GR11L)”, the % Remaining Phosphorylation at 15 µg/mL (100 nM) Inhibitor, IGF-1 (20 ng/mL) induced IGF-1R phosphorylation stood at 35%; the % Remaining Phosphorylation at 15 µg/mL (100 nM) Inhibitor, IGF-2 (100 ng/mL) induced IGF-1R phosphorylation turned out to be 76%; the % Remaining Phosphorylation at 15 µg/mL (100 nM) Inhibitor, human serum (20%) induced IGF-1R phosphorylation was determined as 120%; the IC50, IGF-1 (20 ng/mL) induced IGF-1R phosphorylation, cell-based ELISA turned out to be 1.16 µg/mL. Also, the IC50, IGF-2 (100 ng/mL) induced IGF-1R phosphorylation, cell-based ELISA is over 15 µg/mL and the IC50, human serum (20%) induced IGF-1R phosphorylation, cell-based ELISA was over 15 µg/mL.

(Values after US20130122005A1, “ANTICANCER COMBINATION THERAPY” (priority 2011, published 2013).)
